The numbers were not newly measured in publication PMC3447994, which cites them from elsewhere.

In this series the target is IgG Fc Fc (Homo sapiens) [IgG part: P01857].

FcγRIIIa, sequence (P08637 17-254): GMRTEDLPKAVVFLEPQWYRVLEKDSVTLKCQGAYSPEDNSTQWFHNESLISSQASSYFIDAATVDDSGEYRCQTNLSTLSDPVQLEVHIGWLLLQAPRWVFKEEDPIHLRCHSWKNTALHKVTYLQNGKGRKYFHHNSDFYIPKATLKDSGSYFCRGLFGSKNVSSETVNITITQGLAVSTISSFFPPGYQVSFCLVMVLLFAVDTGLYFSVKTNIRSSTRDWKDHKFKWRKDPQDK

By Kd is commonly meant the free concentration of one partner at which half of the binding sites on the other are occupied at equilibrium, for simple one-to-one binding. With FcγRIIIa (from UniProt P08637), the equilibrium dissociation constant (Kd) is 2 µM.
